According to PMC11514458:

Assays:
RAD51;BCDX2 complex [1] = biological target: T1, RAD51;BCDX2 complex (human?;human, UniProt Q06609;O15315;O43502;O75771;O43543 1-339;1-384;1-376;1-328;1-280, |); assay: BLI; BCDX2 facilitates RAD51 binding; EMSA: 20 mM Tris-HCl pH 7.5, 2 mM MgCl2, 2 mM ATP, 37 C, 20 nM DNA, glutaraldehyde fixation; stopped-flow: 25 mM Tris-HCl pH 7.5, 5 mM MgCl2, 50 mM KCl, 2 mM ATP, 0.5 mM EDTA, 10% glycerol, 37 C; BLI: 50 mM Tris-HCl pH 7.5, 2 mM ATP, 50 mM KCl, 5 mM MgCl2, 0.05% Tween 20, room temperature; details: protein: recombinant;recombinant; tags: ;Strep-tag and His-tag (XRCC2 N-terminal His); copies: 1;1;1;1;1; label: 5' biotin
T1 sequence (Q06609 whole entry, one chain of several): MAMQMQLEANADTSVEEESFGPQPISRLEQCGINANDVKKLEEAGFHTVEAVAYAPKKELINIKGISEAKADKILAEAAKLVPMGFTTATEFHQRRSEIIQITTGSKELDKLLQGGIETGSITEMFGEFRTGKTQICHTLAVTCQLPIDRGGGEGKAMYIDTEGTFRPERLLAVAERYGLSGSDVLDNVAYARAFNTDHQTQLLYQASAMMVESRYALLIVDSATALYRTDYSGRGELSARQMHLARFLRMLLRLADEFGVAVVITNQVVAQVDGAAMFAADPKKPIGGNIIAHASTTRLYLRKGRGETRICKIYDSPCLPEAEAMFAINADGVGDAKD

RAD51;BCDX2(R159A) [2] = biological target: T2, RAD51;BCDX2(R159A) (human?;human?, UniProt Q06609;O15315;O43502;O75771;O43543 1-339;1-384;1-376;1-328;1-280, |R159A); assay: BLI; no RAD51 loading by mutant; EMSA: 20 mM Tris-HCl pH 7.5, 2 mM MgCl2, 2 mM ATP, 37 C, 20 nM DNA, glutaraldehyde fixation; stopped-flow: 25 mM Tris-HCl pH 7.5, 5 mM MgCl2, 50 mM KCl, 2 mM ATP, 0.5 mM EDTA, 10% glycerol, 37 C; BLI: 50 mM Tris-HCl pH 7.5, 2 mM ATP, 50 mM KCl, 5 mM MgCl2, 0.05% Tween 20, room temperature; details: protein: recombinant;recombinant; tags: ;; copies: 1;1;1;1;1; label: 5' biotin
T2 sequence (Q06609 whole entry, stated change not applied, one chain of several): as the sequence (Q06609 whole entry, one chain of several) above

RAD51;BCD(R266A)X2 [3] = biological target: T3, RAD51;BCD(R266A)X2 (human?;human?, UniProt Q06609;O15315;O43502;O75771;O43543 1-339;1-384;1-376;1-328;1-280, |R266A); assay: as above; details: protein: recombinant;recombinant; tags: ;; copies: 1;1;1;1;1; label: 5' biotin
T3 sequence (Q06609 whole entry, stated change not applied, one chain of several): as the sequence (Q06609 whole entry, one chain of several) above

BCDX2 complex [4] = biological target: T4, BCDX2 complex (human, UniProt O15315;O43502;O75771;O43543 1-384;1-376;1-328;1-280); assay: EMSA; efficient binding; EMSA: 20 mM Tris-HCl pH 7.5, 2 mM MgCl2, 2 mM ATP, 37 C, 20 nM DNA, glutaraldehyde fixation; stopped-flow: 25 mM Tris-HCl pH 7.5, 5 mM MgCl2, 50 mM KCl, 2 mM ATP, 0.5 mM EDTA, 10% glycerol, 37 C; BLI: 50 mM Tris-HCl pH 7.5, 2 mM ATP, 50 mM KCl, 5 mM MgCl2, 0.05% Tween 20, room temperature; details: protein: recombinant; tags: Strep-tag and His-tag (XRCC2 N-terminal His); copies: 1;1;1;1; label: 5' FITC
T4 sequence 1: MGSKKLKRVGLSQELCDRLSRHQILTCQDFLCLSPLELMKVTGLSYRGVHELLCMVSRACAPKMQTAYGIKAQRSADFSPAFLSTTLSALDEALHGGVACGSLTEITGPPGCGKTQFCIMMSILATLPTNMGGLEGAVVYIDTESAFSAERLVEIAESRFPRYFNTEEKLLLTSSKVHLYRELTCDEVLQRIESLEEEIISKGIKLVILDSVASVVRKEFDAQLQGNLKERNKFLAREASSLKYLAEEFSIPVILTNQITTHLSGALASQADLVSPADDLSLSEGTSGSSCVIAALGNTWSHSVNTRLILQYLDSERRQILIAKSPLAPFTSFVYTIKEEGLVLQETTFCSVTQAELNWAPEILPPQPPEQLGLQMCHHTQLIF
T4 sequence 2: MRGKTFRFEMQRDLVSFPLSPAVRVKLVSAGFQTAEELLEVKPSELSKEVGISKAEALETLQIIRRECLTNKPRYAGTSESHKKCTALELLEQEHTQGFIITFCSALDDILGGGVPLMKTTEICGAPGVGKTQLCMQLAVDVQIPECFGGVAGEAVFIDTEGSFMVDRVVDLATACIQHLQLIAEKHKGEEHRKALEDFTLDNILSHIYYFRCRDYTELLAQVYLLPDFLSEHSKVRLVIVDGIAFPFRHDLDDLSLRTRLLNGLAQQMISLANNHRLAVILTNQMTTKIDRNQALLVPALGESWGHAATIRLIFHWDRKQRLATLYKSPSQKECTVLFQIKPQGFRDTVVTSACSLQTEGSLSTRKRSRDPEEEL
T4 sequence 3: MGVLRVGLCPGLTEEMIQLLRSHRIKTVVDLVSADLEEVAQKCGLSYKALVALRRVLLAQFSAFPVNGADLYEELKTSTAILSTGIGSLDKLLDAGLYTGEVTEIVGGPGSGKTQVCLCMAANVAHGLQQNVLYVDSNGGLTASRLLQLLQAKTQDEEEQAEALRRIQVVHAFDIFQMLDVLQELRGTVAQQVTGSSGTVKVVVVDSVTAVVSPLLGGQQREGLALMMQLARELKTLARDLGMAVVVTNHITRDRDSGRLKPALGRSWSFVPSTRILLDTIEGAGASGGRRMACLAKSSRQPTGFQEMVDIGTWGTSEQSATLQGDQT
T4 sequence 4: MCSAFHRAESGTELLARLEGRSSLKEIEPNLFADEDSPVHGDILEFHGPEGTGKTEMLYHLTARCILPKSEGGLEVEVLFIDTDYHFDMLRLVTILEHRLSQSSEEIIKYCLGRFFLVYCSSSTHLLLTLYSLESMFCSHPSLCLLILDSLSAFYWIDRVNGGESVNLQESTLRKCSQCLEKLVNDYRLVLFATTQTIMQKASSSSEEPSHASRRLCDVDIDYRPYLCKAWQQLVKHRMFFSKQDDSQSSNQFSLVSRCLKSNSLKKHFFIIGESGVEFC

BCDX2 complex [5] = biological target: T4, BCDX2 complex; assay: EMSA; 10 nt sufficient within reversed fork; EMSA: 20 mM Tris-HCl pH 7.5, 2 mM MgCl2, 2 mM ATP, 37 C, 20 nM DNA, glutaraldehyde fixation; stopped-flow: 25 mM Tris-HCl pH 7.5, 5 mM MgCl2, 50 mM KCl, 2 mM ATP, 0.5 mM EDTA, 10% glycerol, 37 C; BLI: 50 mM Tris-HCl pH 7.5, 2 mM ATP, 50 mM KCl, 5 mM MgCl2, 0.05% Tween 20, room temperature; details: protein: recombinant; tags: Strep-tag and His-tag (XRCC2 N-terminal His); copies: 1;1;1;1; label: 3' Cy3 on strand 1; reversed fork of 4 strands, 3' ssDNA tail 10 nt
RAD51;BCDX2(R159A) [6] = biological target: T2, RAD51;BCDX2(R159A); assay: BLI; RAD51 loading retained; EMSA: 20 mM Tris-HCl pH 7.5, 2 mM MgCl2, 2 mM ATP, 37 C, 20 nM DNA, glutaraldehyde fixation; stopped-flow: 25 mM Tris-HCl pH 7.5, 5 mM MgCl2, 50 mM KCl, 2 mM ATP, 0.5 mM EDTA, 10% glycerol, 37 C; BLI: 50 mM Tris-HCl pH 7.5, 2 mM ATP, 50 mM KCl, 5 mM MgCl2, 0.05% Tween 20, room temperature; details: protein: recombinant;recombinant; tags: ;; copies: 1;1;1;1;1; label: 3' Cy3 on strand 1; reversed fork of 4 strands, 3' ssDNA tail
RAD51;BCD(R266A)X2 [7] = biological target: T3, RAD51;BCD(R266A)X2; assay: as above; details: protein: recombinant;recombinant; tags: ;; copies: 1;1;1;1;1; label: 3' Cy3 on strand 1; reversed fork of 4 strands, 3' ssDNA tail
RAD51;BCDX2 complex [8] = biological target: T1, RAD51;BCDX2 complex; assay: BLI; enhanced RAD51 loading; EMSA: 20 mM Tris-HCl pH 7.5, 2 mM MgCl2, 2 mM ATP, 37 C, 20 nM DNA, glutaraldehyde fixation; stopped-flow: 25 mM Tris-HCl pH 7.5, 5 mM MgCl2, 50 mM KCl, 2 mM ATP, 0.5 mM EDTA, 10% glycerol, 37 C; BLI: 50 mM Tris-HCl pH 7.5, 2 mM ATP, 50 mM KCl, 5 mM MgCl2, 0.05% Tween 20, room temperature; details: protein: recombinant;recombinant; tags: ;Strep-tag and His-tag (XRCC2 N-terminal His); copies: 1;1;1;1;1; label: 3' Cy3 on strand 1; 5' biotin on strand 4; reversed fork of 4 strands, 3' ssDNA tail

TTTTTTTTTTTTTTT (ssDNA) [biotin-dT15]
binding result (RAD51;BCDX2 complex [1]): binds

TTTTTTTTTTTTTTTTTTTT (ssDNA) [biotin-dT20]
binding result (RAD51;BCDX2(R159A) [2]): no binding
binding result (RAD51;BCD(R266A)X2 [3]): no binding

GAATGTGTGTCTCAATC (ssDNA) [ssDNA 20mer]
binding result (BCDX2 complex [4]): binds

B1: 10ntRVF (mixed)
DNA 1: GACGCTGCCGAATTCTACCAGTGCCTTGCTATTTTTTTTTT
DNA 2: ATCTGTTGTAATCGTCAAGCTTTATGCCGTT
DNA 3: GAACGGCATAAAGCTTGACGATTACAACAGATCATGGAGCTGTCTAGAGGATCCGACTATCGA
DNA 4: ATCGATAGTCGGATCCTCTAGACAGCTCCATGTAGCAAGGCACTGGTAGAATTCGGCAGCGT
binding result (BCDX2 complex [5]): binds

B2: 20ntRVF (mixed)
DNA 1: GACGCTGCCGAATTCTACCAGTGCCTTGCTATTTTTTTTTTTTTTTTTTTTTTTTT
DNA 2: B1 DNA 2
DNA 3: B1 DNA 3
DNA 4: B1 DNA 4
binding result (RAD51;BCDX2(R159A) [6]): binds
binding result (RAD51;BCD(R266A)X2 [7]): binds

B3: RVF25ssDNA (mixed)
DNA 1: GACGCTGCCGAATTCTACCAGTGCCTTGCTATTTTTTTTTTTTTTTTTTTTTTTTTTTTTT
DNA 2: B1 DNA 2
DNA 3: B1 DNA 3
DNA 4: B1 DNA 4
binding result (RAD51;BCDX2 complex [8]): binds
